Reference: publication PMC9778525

Experiments:
[1] = molecular target: N-terminus His-tagged annexin V (human) (UniProt P08758); test: high-speed atomic force microscopy (HS-AFM); 1 uM annexin V added to supported lipid bilayers (DOPC:DOPS:biotinyl-DOPE = 7:2:1) on mica; 10 mM HEPES-NaOH pH 7.0, 2 mM CaCl2, 150 mM NaCl; trimers and 2D crystal lattice (p6) on the membrane
[2] = molecular target: annexin V without any residual amino acids (human) (UniProt P08758); test: as above

| stoichiometry N [1] | stoichiometry N [2] | Substance |
| --- | --- | --- |
| 3 |  | N-terminus His-tagged annexin V (from UniProt P08758 1-320) (natural protein) |
|  | 3 | annexin V without any residual amino acids (from UniProt P08758 1-320) (natural protein) |
